Residue numbers refer to the chain shown, from its start. Numbers in names are those of the source. Starred links: 1 amine or outer side, 2 acyl side, 3 side chain; linkers in the order of their positions; H or OH if unused. Positions of bridges follow the written chain, without caps; N, C: chain ends. Non-standard residues stand in square brackets, D forms with d. No end group written: not given here. *: point of attachment. Nip(3R) = O=C([C@@H]1CCCN([*:1])C1)[*:2]; S5 = C=CCCC[C@](C)(N)C(=O)O; Acryloyl = C=CC(=O)*
Legend:
[1] = target: T1, Bfl-1 (recombinant protein of Examples 1-4) (UniProt Q16548 1-153, limits assumed); experiment: fluorescence polarization: FITC-labelled SAHB, anti-apoptotic protein serially diluted from 1 µM
T1 construct: also called 9xHis-tagged Bfl-1
T1 sequence (looked up): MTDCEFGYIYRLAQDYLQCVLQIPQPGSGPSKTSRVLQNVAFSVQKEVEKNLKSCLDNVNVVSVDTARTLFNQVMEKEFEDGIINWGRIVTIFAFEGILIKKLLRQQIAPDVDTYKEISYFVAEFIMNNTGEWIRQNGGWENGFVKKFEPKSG
Procedure: (§1) The solution-state equilibrium binding assay was used to determine binding affinities of the stapled peptides to the anti-apoptotic proteins. Proteins were serially diluted from 1 μM, then combined with FITC-labeled SAHB and polarization measured at 5 min on a microplate reader. We then calculated dissociation constants (KD) by nonlinear regression analysis of dose-response curves.

[2] = target: T2, MCL-1 (recombinant protein of Examples 1-4) (UniProt Q07820 170-327, limits assumed); experiment: as above
T2 construct: also called MCL-I
T2 sequence (Q07820 170-327 limits assumed): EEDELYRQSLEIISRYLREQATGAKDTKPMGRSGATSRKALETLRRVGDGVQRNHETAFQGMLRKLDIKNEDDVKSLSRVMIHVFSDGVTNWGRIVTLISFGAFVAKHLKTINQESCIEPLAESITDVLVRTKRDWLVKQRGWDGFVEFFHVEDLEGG
Procedure: as §1

[3] = target: T3, BFL-1ΔC C4S/C19S (human, UniProt Q16548 1-153); experiment: biolayer interferometry (Octet RED384): biotin-PEG-NOXA SAHB on super streptavidin tips, BFL-1ΔC construct in solution
T3 construct: range 1-153; Recombinant, E. coli; made by site-directed mutagenesis; also called His-BFL-1ΔC C4S/C19S; C55-only BFL-1; not shown: N-terminal His tag from the pET19b vector
T3 sequence (looked up): T1 sequence (looked up) with C4S, C19S
Procedure: (§2) Excess streptavidin was quenched by incubation with 2 μg/mL biocytin. The tips were then washed with kinetics buffer and soaked in a serial dilution of BFL-1ΔC for 10 min to measure association rate, followed by a 15 min incubation in kinetics buffer to measure dissociation rate. Dissociation constants were calculated using Octet Data Analysis version 9.0.

[4] = target: T4, BFL-1ΔC (aa 1-153) (human, UniProt Q16548 1-153); experiment: as above
T4 construct: Recombinant, expressed in E. coli; the recombinant construct's species is not restated; also called wild-type BFL-1ΔC; BFL-1 WT; not shown: N-terminal His tag and vector-derived linker of pET19b
T4 sequence: T1 sequence (looked up)
Procedure: as §2

[5] = target: T5, BFL-1 C4S/C19S/C55S; experiment: as above
T5 construct: member of m33; m12 without cysteines; also called BFL-1ΔC C4S/C19S/C55S
T5 chain: T1 sequence (looked up) with C4S, C19S, C55S
Procedure: as §2

[6] = target: T3, BFL-1ΔC C4S/C19S; experiment: covalent conjugation, 10:1 peptide:protein, reducing and denaturing gel, Coomassie
Procedure: Processing for gel electrophoresis and Coomassie staining was performed as above.

[7] = target: T6, HA-BFL-1ΔC C4S/C19S (human, UniProt Q16548 1-153); experiment: crosslinking in lysates of transfected 293T cells, anti-HA and biotin western analysis
T6 construct: range 1-153; tested in lysates and in intact cells; also called expressed BFL-1; not shown: HA tag
T6 sequence (looked up): T1 sequence (looked up) with C4S, C19S
Procedure: For lysate experiments, cells were trypsinized 24 hours post-transfection, washed with PBS, and lysed by incubation with 1% CHAPS lysis buffer (150 mM NaCl, 50 mM Tris pH 7.4, 100 mM DTT). Protein concentration of the soluble fraction was measured using a BCA kit according to manufacturer's instructions (Thermo Scientific). […] Samples were then boiled in LDS buffer and subjected to western analysis using 1:1000 dilutions of HA (Sigma-Aldrich, #12CA5) and biotin (Abcam, #53494) antibodies. […] After 24 h, cells were trypsinized, washed with PBS, lysed in 1% CHAPS buffer, and the supernatant collected for protein concentration determination by BCA kit. […] The mixtures were then subjected to HA or FLAG (Sigma-Aldrich, F7425) immunoprecipitation, followed by western analysis using 1:1000 dilutions of HA, FLAG, biotin, and BID (Santa Cruz sc-11423) antibodies. […] Cells were harvested and lysed as above, and incubated overnight with anti-HA agarose beads (Pierce). The beads were washed 3 times with lysis buffer, eluted by boiling in LDS buffer, and subjected to western analysis with HA and biotin antibodies.

[8] = target: T4, BFL-1ΔC (aa 1-153); experiment: covalent conjugation assay, gel shift
[9] = target: T7, native BFL-1 (A375P melanoma cells) (human, UniProt Q16548 1-175); experiment: A375P lysates with biotinylated peptides, streptavidin pull-down, BFL-1 western analysis; also biotinylation of purified mitochondria
T7 construct: also called native mitochondrial BFL-1
T7 sequence: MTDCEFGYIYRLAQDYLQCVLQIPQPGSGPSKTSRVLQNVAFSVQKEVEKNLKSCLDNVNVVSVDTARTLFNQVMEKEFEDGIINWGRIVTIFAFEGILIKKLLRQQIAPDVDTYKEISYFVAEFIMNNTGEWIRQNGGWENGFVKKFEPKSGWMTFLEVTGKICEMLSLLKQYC

B1: NOXA SAHBA (peptide)
peptide: AELEVECATQLR[S5]FGD[S5]LNFRQKLL
modifications: staple 13-17; also: N-terminal PEG-biotin or FITC depending on assay
notes: Stapled NOXA BH3 (aa 19-43) with native C25; also called WT NOXA SAHB; wild-type NOXA SAHBA
For B1, the “EC50 (read off the curve)” value [1] was ~100 nM, the “EC50 (read off the curve)” value [2] was ~200 nM and the Kd [3] was 165 nM. The Kd [4] was 122 nM and the Kd [5] was 118 nM.

B2: NOXA SAHBA C25S (peptide)
peptide: AELEVESATQLR[S5]FGD[S5]LNFRQKLL
modifications: staple 13-17; also: N-terminal PEG-biotin or FITC depending on assay
notes: Stapled NOXA BH3 with C25S; also called NOXA C25S SAHB; C25S mutant peptide
With B2 the Kd [3] was 47.2 nM, the Kd [4] was 46.6 nM and the Kd [5] was 58.2 nM.

With AELEVECATQLR[S5]YGD[S5]LNFRQKLL (staple 13-17; also: FITC-labelled for FP assay) [NOXA SAHBA F32Y] the “EC50 (read off the curve)” value [1] was ~200 nM and the binding result [2] was “no binding (tested: 1e-6 M)”.

B3: NOXA SAHBA bearing warhead 1 (peptide)
peptide: Acryloyl-[(3S)‑pyrrolidine‑3‑carboxylic acid]EVESATQLR[S5]FGD[S5]LNFRQKLL
modifications: staple 11-15
notes: Member of the NOXA SAHBA warhead panel 1-8
B3: binds [6].

B4: NOXA SAHBA bearing warhead 5 (peptide)
peptide: Acryloyl-PEVESATQLR[S5]FGD[S5]LNFRQKLL
modifications: staple 11-15; also: X1 proline L or D not settled
notes: as for B3
B4: binds [6].

B5: BIM SAHBA bearing warhead 1 (peptide)
peptide: [(3S)‑1‑acryloylpyrrolidine‑3‑carboxylic acid]IAQELR[S5]IGD[S5]FNAYYARR
modifications: staple 8-12
notes: Member of the BIM SAHBA warhead panel 1-8
B5: binds [6].

B6: BIM SAHBA-3 (peptide)
peptide: [Nip(3R)](Acryloyl)IAQELR[S5]IGD[S5]FNAYYARR
modifications: staple 8-12
notes: Warhead-bearing BIM SAHBA (aa 147-166); also called BIM SAHBA-WH with warhead 3; biotinylated BIM SAHBA-3
B6: binds [7]; binds [8]; binds [9]. B6: binds [6].

B7: BIM SAHBA bearing warhead 8 (peptide)
peptide: Acryloyl-IAQELR[S5]IGD[S5]FNAYYARR
modifications: staple 7-11
notes: as for B5
B7: binds [6].
